This assay concerns the target T1, Modified biopolymer 3' (biopolymer 3, 427 amino acids, structure D-B84, with amino groups transformed into … (amino groups of the lysines of peptide D transformed into azide groups (lysine transformation rate 50%); covalently grafted to alkynyl-functionalised glass by click cycloaddition).
T1 construct: In the assay it was grafted to a glass surface through 1,2,3-triazole links; also called POLYM; 3'
T1 chain: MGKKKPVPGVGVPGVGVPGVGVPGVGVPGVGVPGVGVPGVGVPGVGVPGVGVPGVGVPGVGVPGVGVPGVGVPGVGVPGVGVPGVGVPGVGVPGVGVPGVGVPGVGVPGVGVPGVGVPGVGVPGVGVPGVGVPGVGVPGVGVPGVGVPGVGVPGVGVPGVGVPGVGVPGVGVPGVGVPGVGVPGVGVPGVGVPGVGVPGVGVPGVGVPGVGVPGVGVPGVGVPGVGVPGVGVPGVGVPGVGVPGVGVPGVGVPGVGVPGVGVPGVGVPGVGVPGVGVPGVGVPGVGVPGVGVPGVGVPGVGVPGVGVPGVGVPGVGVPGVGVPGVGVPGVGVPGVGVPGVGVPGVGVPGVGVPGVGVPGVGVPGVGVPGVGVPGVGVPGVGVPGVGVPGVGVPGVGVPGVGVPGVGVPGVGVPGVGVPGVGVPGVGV
The assay is described as follows: ToF-SIMS of a glass surface grafted with polymer 3' after immersion in an aqueous solution of polymer 4.

B1: Biopolymer 4 (371 amino acids), structure B14-A2-B14 (other)
chain: MESLLPVPGVGVPGVGVPGVGVPGVGVPGVGVPGVGVPGVGVPGVGVPGVGVPGVGVPGVGVPGVGVPGVGVPGVGVPGIGVPGIGVPGIGVPGIGVPGIGVPGIGVPGIGVPGIGVPGIGVPGIGAVTGRGDSPASSVPGIGVPGIGVPGIGVPGIGVPGIGVPGIGVPGIGVPGIGVPGIGVPGIGVPGIGVPGIGVPGIGVPGIGVPGIGVPGIGVPGIGVPGIGVPGIGVPGIGAVTGRGDSPASSVPGIGVPGIGVPGIGVPGIGVPGIGVPGIGVPGIGVPGIGVPGIGVPGIGVPGVGVPGVGVPGVGVPGVGVPGVGVPGVGVPGVGVPGVGVPGVGVPGVGVPGVGVPGVGVPGVGVPGVGV
notes: Unmodified polymer 4, adsorbed from aqueous solution onto the surface grafted with polymer 3'; also called POLYM
Consider B1, for which the binding result is given as “binds”.

The record behind these values is patent US20140227782A1 (UMUVERSIDAD DE VALLADOLID, published 2014).
